T1: HTRA3, P83110
T1 sequence (P83110 354-453, limits assumed, looked up): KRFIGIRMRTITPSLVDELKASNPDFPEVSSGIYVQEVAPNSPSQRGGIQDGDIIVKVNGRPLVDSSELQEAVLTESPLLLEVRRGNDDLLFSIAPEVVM

T2: DFNB31_1, Q9P202
T2 sequence (Q9P202 135-233, limits assumed, looked up): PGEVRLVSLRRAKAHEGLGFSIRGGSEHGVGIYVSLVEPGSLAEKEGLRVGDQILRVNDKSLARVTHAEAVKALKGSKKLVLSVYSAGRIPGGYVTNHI

T3: APBA2_2, Q99767
T3 sequence (Q99767 654-744, limits assumed, looked up): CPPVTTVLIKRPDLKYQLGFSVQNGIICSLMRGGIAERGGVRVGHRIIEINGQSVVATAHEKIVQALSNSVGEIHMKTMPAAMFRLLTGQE

T4: SNTG1, Q9NSN8
T4 sequence (Q9NSN8 52-150, limits assumed, looked up): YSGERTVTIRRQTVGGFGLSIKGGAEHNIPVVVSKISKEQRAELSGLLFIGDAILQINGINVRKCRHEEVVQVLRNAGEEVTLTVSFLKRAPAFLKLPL

T5: LNX2_2, Q8N448
T5 sequence (Q8N448 334-432, limits assumed, looked up): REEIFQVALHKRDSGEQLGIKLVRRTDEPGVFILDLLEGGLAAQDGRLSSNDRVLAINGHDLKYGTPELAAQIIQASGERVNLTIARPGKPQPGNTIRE

T6: MPDZ_12, O75970
T6 sequence (O75970 1857-1958, limits assumed, looked up): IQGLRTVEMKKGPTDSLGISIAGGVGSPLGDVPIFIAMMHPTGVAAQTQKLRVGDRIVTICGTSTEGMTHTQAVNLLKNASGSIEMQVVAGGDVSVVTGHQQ

T7: CARD11, Q9BXL7
T7 sequence (Q9BXL7 662-765, limits assumed, looked up): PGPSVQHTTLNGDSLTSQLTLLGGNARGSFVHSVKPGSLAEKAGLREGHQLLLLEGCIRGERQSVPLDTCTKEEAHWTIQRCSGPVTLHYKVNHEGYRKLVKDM

T8: TJP3_3, O95049
T8 sequence (O95049 375-456, limits assumed, looked up): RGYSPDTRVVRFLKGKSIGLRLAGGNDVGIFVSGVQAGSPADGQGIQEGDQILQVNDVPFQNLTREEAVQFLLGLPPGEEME

T9: RAPGEF6, Q8TEU7
T9 sequence (Q8TEU7 525-625, limits assumed, looked up): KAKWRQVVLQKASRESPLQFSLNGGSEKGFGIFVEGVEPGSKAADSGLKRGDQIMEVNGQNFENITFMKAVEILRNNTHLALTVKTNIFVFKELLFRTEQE

T10: DFNB31_2, Q9P202
T10 sequence (Q9P202 274-371, limits assumed, looked up): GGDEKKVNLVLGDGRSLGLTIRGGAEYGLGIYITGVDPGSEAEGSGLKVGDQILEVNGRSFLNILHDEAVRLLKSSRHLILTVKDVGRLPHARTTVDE

T11: SNTB1, Q13884
T11 sequence (Q13884 107-205, limits assumed, looked up): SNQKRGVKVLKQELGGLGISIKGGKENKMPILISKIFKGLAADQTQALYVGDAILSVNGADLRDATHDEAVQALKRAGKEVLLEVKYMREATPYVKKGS

T12: DFNB31_3, Q9P202
T12 sequence (Q9P202 811-907, limits assumed, looked up): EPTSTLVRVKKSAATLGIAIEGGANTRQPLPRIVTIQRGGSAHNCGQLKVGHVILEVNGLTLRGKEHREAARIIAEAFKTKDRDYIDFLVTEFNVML

T13: ARHGAP21, Q5T5U3
T13 sequence (Q5T5U3 45-169, limits assumed, looked up): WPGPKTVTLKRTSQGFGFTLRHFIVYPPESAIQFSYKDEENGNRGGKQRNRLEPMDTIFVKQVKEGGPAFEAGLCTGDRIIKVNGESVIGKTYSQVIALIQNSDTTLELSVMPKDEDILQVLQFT


What was measured:
Assay in all cases: holdup assay
Set-up in all cases: key: below the threshold = too weak to quantify, mostly under pKd 3.1 to 4
Details in all cases: plain residues with an end cap or a label only (N-terminal biotin on a linker: ado-ado)
HTRA3, P83110 = target: T1, HTRA3, P83110
NOS1, P29475 = target: NOS1, P29475
NOS1, P29475, sequence (P29475 9-101): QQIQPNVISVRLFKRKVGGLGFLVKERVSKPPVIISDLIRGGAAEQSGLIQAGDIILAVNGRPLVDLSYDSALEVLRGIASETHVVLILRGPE

PTPN3, P26045 = target: PTPN3, P26045
PTPN3, P26045, sequence (P26045 505-587): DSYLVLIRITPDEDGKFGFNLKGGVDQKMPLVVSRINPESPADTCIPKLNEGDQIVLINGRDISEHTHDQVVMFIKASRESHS

DFNB31_1, Q9P202 = target: T2, DFNB31_1, Q9P202
APBA2_2, Q99767 = target: T3, APBA2_2, Q99767
SNTG1, Q9NSN8 = target: T4, SNTG1, Q9NSN8
LNX2_2, Q8N448 = target: T5, LNX2_2, Q8N448
MPDZ_12, O75970 = target: T6, MPDZ_12, O75970
SCRIB_1, Q14160 = target: SCRIB_1, Q14160
SCRIB_1, Q14160, sequence (Q14160 718-814): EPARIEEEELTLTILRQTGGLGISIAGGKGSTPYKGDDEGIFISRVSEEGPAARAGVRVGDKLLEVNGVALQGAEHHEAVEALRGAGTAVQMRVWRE

CARD11, Q9BXL7 = target: T7, CARD11, Q9BXL7
MAGI2_6, Q86UL8 = target: MAGI2_6, Q86UL8
MAGI2_6, Q86UL8, sequence (Q86UL8 1141-1229): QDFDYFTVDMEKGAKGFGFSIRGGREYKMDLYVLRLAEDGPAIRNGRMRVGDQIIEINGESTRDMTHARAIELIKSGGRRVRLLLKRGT

TJP3_3, O95049 = target: T8, TJP3_3, O95049
Inadl_4, Q8NI35 = target: Inadl_4, Q8NI35
Inadl_4, Q8NI35, sequence (Q8NI35 547-651): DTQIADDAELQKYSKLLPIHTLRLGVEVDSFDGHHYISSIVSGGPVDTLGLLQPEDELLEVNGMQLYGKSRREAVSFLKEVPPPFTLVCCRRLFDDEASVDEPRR

GIPC2, Q8TF65 = target: GIPC2, Q8TF65
GIPC2, Q8TF65, sequence (Q8TF65 112-203): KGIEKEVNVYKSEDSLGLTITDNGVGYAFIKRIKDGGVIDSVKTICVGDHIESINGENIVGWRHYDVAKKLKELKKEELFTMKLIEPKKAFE

RAPGEF6, Q8TEU7 = target: T9, RAPGEF6, Q8TEU7
IL16_3, Q14005 = target: IL16_3, Q14005
IL16_3, Q14005, sequence (Q14005 1107-1207): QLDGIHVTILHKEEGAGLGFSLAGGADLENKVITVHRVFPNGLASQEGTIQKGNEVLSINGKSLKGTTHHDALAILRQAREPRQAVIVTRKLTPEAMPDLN

Inadl_10, Q8NI35 = target: Inadl_10, Q8NI35
Inadl_10, Q8NI35, sequence (Q8NI35 1673-1763): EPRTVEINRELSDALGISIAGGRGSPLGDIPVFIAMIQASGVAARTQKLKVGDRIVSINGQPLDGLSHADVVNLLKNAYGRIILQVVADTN

PICK1, Q9NRD5 = target: PICK1, Q9NRD5
PICK1, Q9NRD5, sequence (Q9NRD5 17-115): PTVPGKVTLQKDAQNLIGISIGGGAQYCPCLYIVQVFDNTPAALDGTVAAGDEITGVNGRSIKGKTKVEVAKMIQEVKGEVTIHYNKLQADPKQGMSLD

DFNB31_2, Q9P202 = target: T10, DFNB31_2, Q9P202
SNTB1, Q13884 = target: T11, SNTB1, Q13884
NHERF4_2, Q86UT5 = target: NHERF4_2, Q86UT5
NHERF4_2, Q86UT5, sequence (Q86UT5 220-308): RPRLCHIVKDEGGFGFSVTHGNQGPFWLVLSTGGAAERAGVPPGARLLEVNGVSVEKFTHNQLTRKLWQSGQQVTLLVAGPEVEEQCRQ

FRMPD4, Q14CM0 = target: FRMPD4, Q14CM0
FRMPD4, Q14CM0, sequence (Q14CM0 67-160): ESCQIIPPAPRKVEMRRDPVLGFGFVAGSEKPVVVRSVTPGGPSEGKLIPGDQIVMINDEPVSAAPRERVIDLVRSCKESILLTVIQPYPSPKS

SNX27, Q96L92 = target: SNX27, Q96L92
DFNB31_3, Q9P202 = target: T12, DFNB31_3, Q9P202
ARHGAP21, Q5T5U3 = target: T13, ARHGAP21, Q5T5U3

Binder	pKd (HTRA3, P83110)	pKd (NOS1, P29475)	pKd (PTPN3, P26045)	pKd (DFNB31_1, Q9P202)	pKd (APBA2_2, Q99767)	pKd (SNTG1, Q9NSN8)	pKd (LNX2_2, Q8N448)	pKd (MPDZ_12, O75970)	pKd (SCRIB_1, Q14160)	pKd (CARD11, Q9BXL7)	pKd (MAGI2_6, Q86UL8)	pKd (TJP3_3, O95049)	pKd (Inadl_4, Q8NI35)	pKd (GIPC2, Q8TF65)	pKd (RAPGEF6, Q8TEU7)	pKd (IL16_3, Q14005)	pKd (Inadl_10, Q8NI35)	pKd (PICK1, Q9NRD5)	pKd (DFNB31_2, Q9P202)	pKd (SNTB1, Q13884)	further results
QSLNRMEYIV [JAG1, P78504]	3.87	3.54	below the threshold	below the threshold	below the threshold	below the threshold	5.4	below the threshold	below the threshold	below the threshold	below the threshold	below the threshold	below the threshold	below the threshold	below the threshold	below the threshold	below the threshold	below the threshold	below the threshold	below the threshold	pKd (NHERF4_2, Q86UT5): below the threshold; pKd (FRMPD4, Q14CM0): below the threshold; pKd (SNX27, Q96L92): below the threshold; pKd (DFNB31_3, Q9P202): 3.86; pKd (ARHGAP21, Q5T5U3): below the threshold
GNSVLKSTQF [SLC22A12, Q96S37]	below the threshold	3.72	4.59	3.6	below the threshold	below the threshold	below the threshold	below the threshold	below the threshold	below the threshold	below the threshold	below the threshold	below the threshold	below the threshold	below the threshold	below the threshold	below the threshold	4.02	below the threshold	below the threshold	pKd (NHERF4_2, Q86UT5): below the threshold; pKd (FRMPD4, Q14CM0): below the threshold; pKd (SNX27, Q96L92): 4.95; pKd (DFNB31_3, Q9P202): 3.56; pKd (ARHGAP21, Q5T5U3): below the threshold
VRNLPESEEL [MYOZ3, Q8TDC0]	below the threshold	below the threshold	3.91	below the threshold	below the threshold	below the threshold	below the threshold	below the threshold	below the threshold	below the threshold	4.01	below the threshold	below the threshold	below the threshold	below the threshold	below the threshold	below the threshold	4.05	below the threshold	below the threshold	pKd (NHERF4_2, Q86UT5): below the threshold; pKd (FRMPD4, Q14CM0): 3.89; pKd (SNX27, Q96L92): 3.71; pKd (DFNB31_3, Q9P202): below the threshold; pKd (ARHGAP21, Q5T5U3): 3.59
LPHGHSTTRV [NLGN4X, Q8N0W4]	below the threshold	3.76	4.36	4.06	below the threshold	below the threshold	3.8	below the threshold	below the threshold	below the threshold	below the threshold	below the threshold	below the threshold	below the threshold	below the threshold	below the threshold	below the threshold	4.27	below the threshold	4.27	pKd (NHERF4_2, Q86UT5): below the threshold; pKd (FRMPD4, Q14CM0): below the threshold; pKd (SNX27, Q96L92): 5.18; pKd (DFNB31_3, Q9P202): 3.96; pKd (ARHGAP21, Q5T5U3): 3.73

Reference: PMC9482650, “Quantitative fragmentomics allow affinity mapping of interactomes” (Nature Communications, 2022)
